Numbering of substitutions follows the chain as printed. Bounds are passed on as bounds.

The labels stand for the following.
B1: Ma02_p17990.1: TLP antimicrobial protein, Musa acuminata (protein, listed as Musa acuminata)
chain: QYPAMTLTVVNNCPFTVWPAIQPNSGHDVLERGGFALPTVTHRSFPAPTQHWSGRIWARTGCTYANGRFSCATGDCGGRLECGGLGGAAPATLAQVTLHHGGQQDLSSYGVSLVDGFNVGMTVTPHEGKGRCPVVGCRENLLATCPDVLQLRAPAGGGQVVGCKSGCQAFGTDELCCRNMYNSPRTCRASSYSEFFKHACPATFTYAHDSPSLTHECAAPRELKVIFCH
B2: Ma10_p18110.1: snakin antimicrobial protein, Musa acuminata (protein, listed as Musa acuminata)
chain: GSAFCGSKCKVRCSKASVKDRCLKYCGLCCEQCRCVPSGTYGHKDECPCYRDKYTGSGKRRRPKCP
B3: Ma03_p07220.1: TLP antimicrobial protein, Musa acuminata (protein, listed as Musa acuminata)
chain: ATLALYNKCRETVWPGIQPSAGKAVLARGGFQLLPNQAYSLRLPAGWSGRVWGRRGCAFDPATGRGRCATGDCGGALYCNGLGGAPPATLAEFTLGQGRQQDFYDVSLVDGYNLGMSMTPFRGSGQCGRAGCVSDLNEVCPAGLAVRGGTDNRVVACKSACSAFGSPRYCCTGSFGGPQQCKPTAYSRLFKAACPRAYSYAYDDPTSILTCTGASYLVTFCPQH
B4: Ma07_p17800.1: TLP antimicrobial protein, Musa acuminata (protein, listed as Musa acuminata)
chain: ATFDIVNQCSFTVWAAAVPGGGRQLDPSQTWSINVNPGTTGGRVWARTDCSFDGSGSGSCQTGDCGGLLECQGYGTPPNTLAEFALNQFQNMDFIDISLVDGFNVPMDFSPTSGDCRGIRCSADINGQCPAELRAPGGCNNPCTVFKTDEYCCTSGSCGPTNYSMFFKNNCPDAYSYPKDDATSTFTCPGGTNYRVVFCP
B5: Ma02_p13180.1: TLP antimicrobial protein, Musa acuminata (protein, listed as Musa acuminata)
chain: ATFTLTNNCEYTVWPGVLSSAGTAPLSITGFALQQGESRSLDVPAAWSGRFWGRTLCAADASGKFSCGTGDCGSGAVECSGSGAAPPATLAEFTLDGSGGMDFYDVSLVDGYNLPMLVVPQGGSGGACSSTGCLVDLNGVCPSDLKVVLPTSEGGSESVACRSACETFGSPQYCCSGDYGNPNTCKPSSYSQFFKNACPRAYSYAYDDATSTFTCASANYLITFCPSTTSQKSSDSNPEAAGIPSSNNSTMIYSSEEVSHATPTVPRVAVALALAVVALCLGF
B6: Ma04_p17200.1: LTP antimicrobial protein, Musa acuminata (protein, listed as Musa acuminata)
chain: ITCGQVTSALSSCISYATGKGPLSTACCSGVKSLNSAAKTTADRKTACTCIKSTVSRLSGAQAGAIAGIPGKCGVSIGYPISASTDCSKVK
B7: Ma11_p18240.1: LTP antimicrobial protein, Musa acuminata (protein, listed as Musa acuminata)
chain: AIGCGQIISYLIPCLGYAQGTGPLTDGCCSGVRALNGAAQTTPDRQATCNCLKRSAAGVSGIQPGLIAGIPSKCGINVPYRISPSTDCSRVR
B8: Ma06_p33150.1: TLP antimicrobial protein, Musa acuminata (protein, listed as Musa acuminata)
chain: TFEIVNRCSYTVWAAAVPGGGRQLNQGQSWTINVNAGTTGGRIWGRTGCSFDGSGRGRCQTGDCGGVLSCTAYGSPPNTLAEFALNQFNNLDFFDISLVDGFNVPMDFSPTSGGCRGIRCAADINGQCPGALKAPGGCNNPCTVFKTDQYCCNSGSCSPTDYSRFFKRNCPDAYSYPKDDQTSTFTCPGGTNYRVVFCP
B9: Ma09_p27770.1: snakin antimicrobial protein, Musa acuminata (protein, listed as Musa acuminata)
chain: GSLKPSECNNKCDFRCSATSHKKPCLFFCKECCATCLCVPPGTYGNKEACPCYNNWKTKEGGPKCP
B10: Ma04_p17240.1: LTP antimicrobial protein, Musa acuminata (protein, listed as Musa acuminata)
chain: ITCSQVYGDLISCVGYLQGGPIKQQCCSGIKSLIAAARTTQDRRTACGCIKTAAAGLSGIDYGRVSQLPGQCGISVSYKISPNVDCSKIN
B11: Ma04_p17190.1: LTP antimicrobial protein, Musa acuminata (protein, listed as Musa acuminata)
chain: B10 chain with Q41K
B12: Ma06_p00870.1: snakin antimicrobial protein, Musa acuminata (protein, listed as Musa acuminata)
chain: KDLPAEEFGVSLAEKGHKHKHSGFSEAECPGACQYRCSKTAYKKPCLFFCQKCCFKCRCVPPGTYAHKEVCPCYNNWKTKRGGPKCP
B13: Ma08_p22790.1: snakin antimicrobial protein, Musa acuminata (protein, listed as Musa acuminata)
chain: RISLAPTAQPGNPLGPTPQPIKFPMYGATPGSLQPQECSGRCAGRCSATAYKKPCMFFCQKCCAKCLCVPPGTYGNKQVCPCYNNWKTKRGGPKCP
B14: Ma06_p09450.1: snakin antimicrobial protein, Musa acuminata (protein, listed as Musa acuminata)
chain: ADSAYCKSKCKVRCAKAGVMDRCLYYCGMCCEECKCVPSGTYGNKDECPCYRDKVTKDDKKKSKCP
B15: Ma04_p30830.1: LTP antimicrobial protein, Musa acuminata (protein, listed as Musa acuminata)
chain: ATCNPTELTPCAAAILKSSPPSSLCCSKLKSQAPCFCQYQKNPSLSRYISGGRKVAAACGVPVPSC
B16: Ma07_p21450.1: snakin antimicrobial protein, Musa acuminata (protein, listed as Musa acuminata)
chain: KDAFMEAGYAKAPVVAPVPAPPAPRIIKDTKECGDACKDRCKLHSRQNVCSRACITCCSVCKCVPPGTYGHTELCGKCYTDWKTHGNRTKCP
B17: Ma09_p26730.1: TLP antimicrobial protein, Musa acuminata (protein, listed as Musa acuminata)
chain: ATFEIVNWCPFTVWAAAVPGGGRQLDRGQTWVLDVNPGTTGGRIWARTGCSFDGSGSGSCQTGDCGGVLACQGYGSPPNTLAEFALNQFDNLDFLDVSLVDGFNVPMEFSPITGNCSAIRCLADIKGQCPAELWTPGGCNNPCTVFKTDEYCCTSGSCGPTNYSNFFKSNCPDAYSYPKDDATSTFTCPGNGDYKVIFCPSDGYPTRFGRTAVRFVIPRA
B18: Ma09_p13940.1: snakin antimicrobial protein, Musa acuminata (protein, listed as Musa acuminata)
chain: RKAVVEDEPPVSGGGDGKPPVPVIDCAGLCGVRCSRHSRPNLCKRACGTCCFRCKCVPPGTSGNREMCGACYTNMTTHGNRTKCP
B19: Ma09_p21930.1: LTP antimicrobial protein, Musa acuminata (protein, listed as Musa acuminata)
chain: VTCNPLELSPCSSAVLSGARPSAACCAKLKEQQPCFCQYKKNPSLKDYVNSDNGKKALKACGVPIPSC
B20: Ma06_p20150.1: snakin antimicrobial protein, Musa acuminata (protein, listed as Musa acuminata)
chain: EREINCEAKCSHRCSKASRHKMCMRACVDCCHKCHCVPPGTYGHKEECPCYAHMKTRHGKPKCP
B21: Ma06_p33170.1: TLP antimicrobial protein, Musa acuminata (protein, listed as Musa acuminata)
chain: NFEIVNRCSYTVWAAAVPGGGRQLNQGQSWTINVKAGTTGGRIWGRTGCSFDGSGHGRCQTGDCGGLLACTAYGSPPNTLAEFALNQYSNQDYVDISLVDGFNVPMDFSPTSGGCRGMRCTADINKKCPTALKAPGGCNNPCTVFKTDQYCCNSGSCQPTEYSKFFKSNCPDAYSYPKDDPTSLVACPGGTNYRVVFCP

The assay deals with Foc_TR4. Description: In vitro spore germination and mycelial growth assay. It is filed as cell-based, Fusarium oxysporum f.sp. cubense Tropical Race 4. As to conditions: Foc_TR4 spores, purified Pichia-secreted protein, low ionic strength media, 25° C., A595 at 48 hours; read-out: IC50 (μM, CE fraction).
Regarding “Ma02_p12840.1: defensin antimicrobial protein, Musa acuminata (RTCESQSHKFVGPCVRKANCGNVCQTEGFHGGVCRGSLIHRKCYCTKNC; listed as Musa acuminata)”, the IC50 (in general, the concentration at which inhibition is half-maximal) worked out at 0.86 ± 0.07 µM.
Under “Ma06_p21420.1: defensin antimicrobial protein, Musa acuminata (KICRLPSIGFRGPCTSDKNCAKVCRREGFDSGDCEGYTMGCLCNKHC; listed as Musa acuminata)” stands 3 ± 0.17 µM; under “Ma04_p36140.1: defensin antimicrobial protein, Musa acuminata (RTCESASTRFKGTCVRSSNCASVCQGEGFPDGKCEGVRRRCMCRKPC; listed as Musa acuminata)”, 0.84 ± 0.06 µM.
With “Ma08_p13660.1: defensin antimicrobial protein, Musa acuminata (RKCESASHKFKGLCFRASNCANVCKTEGFHGGHCRGLRRRCFCTKHCNSAT; listed as Musa acuminata)”, the IC50 was more than 25 µM.
The figure for “Mba02_g12080.1: defensin antimicrobial protein, Musa acuminata, without yeast signal peptide (RTCESQSHKFVGPCVREANCANVCHTEGFHGGVCRGTLIHRKCYCTKNC; listed as Musa acuminata)” is 6 ± 0.59 µM; for “Ma11_p12930.1: defensin antimicrobial protein, Musa acuminata (RVCRYASRSFRGLCFSDTNCAHVCQTEGFNGGHCHGLRRRCMCLRRGC; listed as Musa acuminata)” it is 0.17 ± 0.006 µM; for “GB ID: RRT50697.1: defensin antimicrobial protein, Musa acuminata (RTCESASSRFKGTCVRSSNCASVCQGEGFPDGRCEGLRRRCMCRKPC; listed as Musa acuminata)” it is 0.51 ± 0.01 µM.
Under B1 stands 0.64 µM; under B2, 1.31 ± 0.03 µM; under B3, 0.009 ± 0.0005 µM.
The figure for B4 is more than 25 µM; for B5 it is more than 30 µM.
As to B6, the IC50 stood at 2.09 ± 0.06 µM.
The figure for B7 is 2.25 ± 0.16 µM.
The figure for B8 is 0.029 ± 0.001 µM.
Under B9 stands 0.08 ± 0.003 µM; under B10, 1.92 ± 0.13 µM; under B11, 3.47 ± 0.21 µM.
In the case of B12, the IC50 was more than 16 µM.
As for B13, the IC50 turned out to be 0.52 ± 0.08 µM.
B14: the IC50 worked out at 2.71 ± 0.53 µM.
The figure for B15 is 6.34 ± 0.23 µM; for B16 it is 0.9 ± 0.05 µM; for B17 it is more than 31 µM.
The figure for B18 is 0.38 ± 0.01 µM.
As to B19, the half-maximal inhibitory concentration (IC50) was 1.86 ± 0.08 µM.
Under B20 stands 0.53 ± 0.01 µM.
The figure for B21 is 0.052 ± 0.002 µM.

These data come from patent US20240141372A1, “TRANSGENIC BANANA PLANTS HAVING INCREASED RESISTANCE TO FUSARIUM OXYSPORUM TROPICAL RACE 4 AND METHODS OF PRODUCING SAME” (Elo Life Systems, priority 2022, published 2024).
